B1: DNA polymerase processivity factor (Human cytomegalovirus (strain AD169) (HHV-5)), P16790 (parent)
chain: MDRKTRLSEPPTLALRLKPYKTAIQQLRSVIRALKENTTVTFLPTPSLILQTVRSHCVSKITFNSSCLYITDKSFQPKTINNSTPLLGNFMYLTSSKDLTKFYVQDISDLSAKISMCAPDFNMEFSSACVHGQDIVRESENSAVHVDLDFGVVADLLKWIGPHTRVKRNVKKAPCPTGTVQILVHAGPPAIKFILTNGSELEFTANNRVSFHGVKNMRINVQLKNFYQTLLNCAVTKLPCTLRIVTEHDTLLYVASRNGLFAVENFLTEEPFQRGDPFDKNYVGNSGKSRGGGGGGGSLSSLANAGGLHDDGPGLDNDLMNEPMGLGGLGGGGGGGGKKHDRGGGGGSGTRKMSSGGGGGDHDHGLSSKEKYEQHKITSYLTSKGGSGGGGGGGGGGLDRNSGNYFNDAKEESDSEDSVTFEFVPNTKKQKCG
partner: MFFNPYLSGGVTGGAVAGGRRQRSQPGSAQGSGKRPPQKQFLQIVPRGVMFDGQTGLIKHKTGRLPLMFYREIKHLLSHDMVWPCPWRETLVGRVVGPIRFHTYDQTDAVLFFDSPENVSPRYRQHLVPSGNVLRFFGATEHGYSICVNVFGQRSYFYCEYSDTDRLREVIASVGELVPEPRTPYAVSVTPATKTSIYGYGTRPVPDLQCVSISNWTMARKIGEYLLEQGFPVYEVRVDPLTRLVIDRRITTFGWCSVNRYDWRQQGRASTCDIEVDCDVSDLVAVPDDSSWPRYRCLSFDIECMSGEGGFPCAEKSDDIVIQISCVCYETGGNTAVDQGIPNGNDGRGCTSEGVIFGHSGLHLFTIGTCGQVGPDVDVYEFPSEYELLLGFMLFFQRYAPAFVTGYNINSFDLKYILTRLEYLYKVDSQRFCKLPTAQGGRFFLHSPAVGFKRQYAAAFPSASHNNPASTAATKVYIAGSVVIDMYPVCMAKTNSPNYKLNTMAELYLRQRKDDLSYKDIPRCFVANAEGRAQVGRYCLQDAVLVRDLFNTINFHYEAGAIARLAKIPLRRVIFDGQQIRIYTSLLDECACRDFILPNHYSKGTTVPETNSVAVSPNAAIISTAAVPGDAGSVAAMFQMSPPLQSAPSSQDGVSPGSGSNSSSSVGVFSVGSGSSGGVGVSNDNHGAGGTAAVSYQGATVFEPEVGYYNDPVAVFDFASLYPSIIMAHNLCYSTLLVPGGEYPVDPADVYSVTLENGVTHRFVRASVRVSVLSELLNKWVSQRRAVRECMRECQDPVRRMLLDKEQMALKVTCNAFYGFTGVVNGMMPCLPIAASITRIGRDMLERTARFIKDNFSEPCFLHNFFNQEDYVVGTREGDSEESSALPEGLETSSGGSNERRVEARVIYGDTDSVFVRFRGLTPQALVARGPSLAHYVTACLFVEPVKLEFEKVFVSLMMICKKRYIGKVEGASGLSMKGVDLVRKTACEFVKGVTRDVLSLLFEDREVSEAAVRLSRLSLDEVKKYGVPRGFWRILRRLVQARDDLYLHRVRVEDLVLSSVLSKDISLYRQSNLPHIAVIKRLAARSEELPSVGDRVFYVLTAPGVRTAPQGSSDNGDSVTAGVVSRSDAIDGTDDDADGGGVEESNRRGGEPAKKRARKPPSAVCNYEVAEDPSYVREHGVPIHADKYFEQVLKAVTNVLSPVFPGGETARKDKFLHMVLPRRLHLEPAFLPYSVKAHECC

Variants of: B1
Conditions: with dpol_hcmva UL54, P08546

Variant	effect of a mutation on the interaction
K35A;K158A;K224A;K237A	decreasing interaction
R165A;K167A;R168A;K171A;K172A	decreasing interaction

Source: IntAct's records for PubMed 18682223
